# US20200024330A1
# How the values were obtained:
# Assay in all cases: cell-based or functional assay
# [1] = molecular target: HIV-1 Env of isolate APV-6 (pseudovirus) (HIV-1 isolate APV-6, subtype B)
# [2] = molecular target: HIV-1 Env of isolate MGRM-AE-002 (CRF01_AE), on pseudovirus (HIV-1)
# [3] = molecular target: HIV-1 Env of isolate APV-13 (pseudovirus) (HIV-1 isolate APV-13, subtype B)
# [4] = molecular target: HIV-1 Env of isolate MGRM-AG-011 (CRF_AG), on pseudovirus (HIV-1)
# [5] = molecular target: HIV-1 Env of isolate 98CN006 (HIV-1)
# [6] = molecular target: HIV-1 Env of isolate VLGCB3 (HIV-1)
# [7] = molecular target: HIV-1 Env of isolate MGRM-D-014 (HIV-1)
# [8] = molecular target: HIV-1 Env of isolate MGRM-Chronic-B-003 (HIV-1)
# [9] = molecular target: HIV-1 Env of isolate MGRM-C-027 (HIV-1)
# [10] = molecular target: HIV-1 Env of isolate MGRM-C-023 (HIV-1)
# [11] = molecular target: HIV-1 JR-CSF Env K168A (HIV-1 (isolate JR-CSF)) (UniProt P20871)
# [12] = molecular target: HIV-1 Env of isolate MGRM-A-009 (clade A), on pseudovirus (HIV-1)
# [13] = molecular target: HIV-1 Env of isolate MGRM-D-008 (HIV-1)
# [14] = molecular target: HIV-1 Env of isolate APV-17 (pseudovirus) (HIV-1 isolate APV-17, subtype B)
# [15] = molecular target: HIV-1 JR-CSF Env N134A (HIV-1 (isolate JR-CSF)) (UniProt P20871)
# [16] = molecular target: HIV-1 Env of isolate 92UG046 (HIV-1)
# [17] = molecular target: HIV-1 Env of isolate 92TH021 (CRF01_AE), on pseudovirus (HIV-1)
# [18] = molecular target: HIV-1 JR-CSF Env V182A (HIV-1 (isolate JR-CSF)) (UniProt P20871)
# [19] = molecular target: HIV-1 JR-CSF Env E172A (HIV-1 (isolate JR-CSF)) (UniProt P20871)
# [20] = molecular target: HIV-1 Env of isolate 97ZA012 (pseudovirus) (HIV-1 isolate 97ZA012, subtype C)
# [21] = molecular target: HIV-1 TRO.11 Env (pseudovirus) (HIV-1)
# [22] = molecular target: HIV-1 MGRM-Chronic-B-017 Env (pseudovirus) (HIV-1)
# [23] = molecular target: HIV-1 Env of isolate MGRM-C-009 (pseudovirus) (HIV-1 isolate MGRM-C-009, subtype C)
# [24] = molecular target: HIV-1 Env of isolate MG RM-D-024 (subtype D) (HIV-1)
# [25] = molecular target: HIV-1 Env of isolate MG RM-AG-012 (HIV-1)
# [26] = molecular target: HIV-1 Env of isolate 98IN022 (pseudovirus) (HIV-1 isolate 98IN022, subtype C)
# [27] = molecular target: HIV-1 92UG005 envelope glycoprotein (Env) on pseudovirus (HIV-1)
# [28] = molecular target: HIV-1 Env of isolate MGRM-C-012 (pseudovirus) (HIV-1 isolate MGRM-C-012, subtype C)
# [29] = molecular target: HIV-1 Env of isolate MGRM-C-005 (pseudovirus) (HIV-1 isolate MGRM-C-005, subtype C)
# [30] = molecular target: HIV-1 93IN905 Env (pseudovirus) (HIV-1)
# [31] = molecular target: HIV-1 MGRM-C-006 Env (HIV-1)
# [32] = molecular target: HIV-1 MGRM-A-013 envelope glycoprotein (Env) (HIV-1)
# [33] = molecular target: HIV-1 93MW959 envelope glycoprotein (Env) on pseudovirus (HIV-1)
# [34] = molecular target: HIV-1 MGRM-F1-022 Env (pseudovirus) (HIV-1)
# [35] = molecular target: HIV-1 MGRM-C-027 envelope glycoprotein (Env) on pseudovirus (HIV-1)
# [36] = molecular target: HIV-1 92RW021 envelope glycoprotein (Env) on pseudovirus (HIV-1)
# [37] = molecular target: HIV-1 Env of pseudovirus 6535.3 (Acute), clade B (HIV-1)
# [38] = molecular target: HIV-1 MGRM-C-010 Env (HIV-1)
# [39] = molecular target: HIV-1 Env of isolate MGRM-D-005 (clade D) (HIV-1)
# [40] = molecular target: HIV-1 92TH021 envelope protein (Env) on pseudovirus (HIV-1)
Substance,IC50 (µg/mL) neutralization [1] [µg/mL],"IC50, single-round pseudovirus neutralization [2] [µg/mL]",IC50 (µg/mL) neutralization [3] [µg/mL],"IC50, single-round pseudovirus neutralization [4] [µg/mL]",IC50 [5] [µg/mL],IC50 [6] [µg/mL],IC50 [7] [µg/mL],IC50 [8] [µg/mL],IC50 [9] [µg/mL],IC50 [10] [µg/mL],Fold IC50 increase relative to wild-type [11] [fold],"IC50, single-round pseudovirus neutralization [12] [µg/mL]",IC50 [13] [µg/mL],IC50 (µg/mL) neutralization [14] [µg/mL],Fold IC50 increase relative to wild-type [15] [fold],IC50 [16] [µg/mL],"IC50, single-round pseudovirus neutralization [17] [µg/mL]",Fold IC50 increase relative to wild-type [18] [fold],Fold IC50 increase relative to wild-type [19] [fold],also measured
5136_H01 (PGT-131) (antibody),> 50,> 50,0.189,> 50,35.3,> 50,0.516,> 50,0.065,0.143,1.7,0.035,> 50,> 50,0.5,> 50,0.014,1.1,–,–
5114_A19 (PGT-128) (antibody),0.007,0.522,0.008,3.93,0.015,0.012,0.013,0.007,0.081,0.026,1.1,0.005,0.033,0.016,1.2,> 50,0.01,1.2,2.5,–
5343_B08 (PGT-135) (antibody),> 50,> 50,0.716,> 50,0.429,0.142,2.21,> 50,> 50,0.051,0.4,> 50,> 50,> 50,0.2,> 50,> 50,1.5,1.3,–
VRC01 (antibody),–,–,–,–,–,–,–,0.1,–,–,–,–,–,–,–,–,–,–,–,"neutralization IC50 [6]: 0.108 µg/mL; IC50, pseudovirus neutralization [7]: 0.332 µg/mL"
5329_C19 (PGT-136) (antibody),> 50,> 50,> 50,> 50,0.406,> 50,> 50,> 50,> 50,3.2,–,> 50,> 50,> 50,–,> 50,> 50,–,–,–
4838_L06 (PGT-121) (antibody),–,–,–,–,–,–,–,–,–,–,–,–,–,–,–,–,–,–,–,"IC50 (µg/mL) neutralization [20]: 0.002 µg/mL; IC50, pseudovirus neutralization [21]: 0.008 µg/mL; IC50, pseudovirus neutralization [22]: > 50 µg/mL; IC50 (µg/mL) neutralization [23]: > 50 µg/mL; IC50 (µg/mL), pseudovirus neutralization [24]: 0.038 µg/mL; neutralization IC50 [25]: > 50 µg/mL; IC50 (µg/mL) neutralization [26]: 0.007 µg/mL; IC50 (ug/ml), neutralizing activity [27]: > 10 µg/mL; IC50 (µg/mL) neutralization [28]: 0.123 µg/mL; IC50 (µg/mL) neutralization [29]: 0.015 µg/mL; IC50, pseudovirus neutralization [30]: 0.005 µg/mL; neutralization IC80 [30]: 0.0302 µg/mL; neutralization IC90 [30]: 0.0645 µg/mL"
5145_B14 (PGT-127) (antibody),–,–,–,–,–,–,–,–,–,–,1.9,–,–,–,1,–,–,1.6,2.1,"IC50 (µg/mL) neutralization [20]: > 50 µg/mL; IC50, pseudovirus neutralization [21]: 0.079 µg/mL; IC50, pseudovirus neutralization [22]: > 50 µg/mL; IC50 (µg/mL) neutralization [23]: > 50 µg/mL; IC50 (µg/mL), pseudovirus neutralization [24]: 1.95 µg/mL; neutralization IC50 [25]: > 50 µg/mL; IC50 (µg/mL) neutralization [26]: 19.2 µg/mL; IC50 (µg/mL) neutralization [28]: 1.07 µg/mL; IC50 (µg/mL) neutralization [29]: 0.57 µg/mL; IC50, pseudovirus neutralization [30]: 0.024 µg/mL"
1496_C09 (PG9) (TCN-109) (antibody),–,–,–,–,–,–,–,–,–,–,–,–,–,–,–,–,–,–,–,"IC50 [31]: 0.23 µg/mL; IC50 (µg/ml), pseudovirus neutralization [32]: 0.16 µg/mL; IC50 (µg/mL), pseudovirus neutralization [7]: 0.023 µg/mL; IC50 (µg/ml), pseudovirus neutralization [33]: 0.04 µg/mL; IC50 (µg/ml), pseudovirus neutralization [34]: 0.06 µg/mL; IC50 (ug/ml), neutralizing activity [35]: 2.45 µg/mL; IC50 neutralization [35]: 2.45 µg/mL; IC50 (µg/mL), pseudovirus neutralization [13]: 11.5 µg/mL; IC50 (µg/ml), pseudovirus neutralization [36]: 0.05 µg/mL; IC50 (µg/ml), pseudovirus neutralization [37]: 0.22 µg/mL; IC50 [38]: 12.4 µg/mL; IC50 (µg/mL), pseudovirus neutralization [16]: 1.86 µg/mL; IC50 (µg/ml), pseudovirus neutralization [39]: 0.59 µg/mL; neutralization IC50 [40]: 0.111 µg/mL"
PGV04 (antibody),–,–,–,–,–,–,–,–,–,–,–,–,–,–,–,–,–,–,–,"IC50, pseudovirus neutralization [5]: 1.32 µg/mL; IC50 (µg/mL), pseudovirus neutralization [7]: 0.194 µg/mL; IC50 (µg/mL), pseudovirus neutralization [13]: 3.56 µg/mL; IC50 (µg/mL), pseudovirus neutralization [16]: 22.4 µg/mL"
4877_D15 (PGT-122) (antibody),–,–,–,–,–,–,–,–,–,–,–,–,–,–,–,–,–,–,–,"IC50 (µg/mL) neutralization [20]: 0.004 µg/mL; IC50, pseudovirus neutralization [21]: 0.011 µg/mL; IC50, pseudovirus neutralization [22]: 5.66 µg/mL; IC50 (µg/mL) neutralization [23]: > 50 µg/mL; IC50 (ug/ml), neutralizing activity [35]: 0.0388 µg/mL; IC50 (µg/mL), pseudovirus neutralization [24]: 0.185 µg/mL; neutralization IC50 [25]: > 50 µg/mL; IC50 (µg/mL) neutralization [26]: 0.032 µg/mL; IC50 (ug/ml), neutralizing activity [27]: > 10 µg/mL; IC50 (µg/mL) neutralization [28]: 2 µg/mL; IC50 (µg/mL) neutralization [29]: 0.027 µg/mL; IC50, pseudovirus neutralization [30]: 0.013 µg/mL"
5345_I01 (PGT-137) (antibody),> 50,> 50,> 50,> 50,1.22,3.36,> 50,> 50,> 50,0.23,–,> 50,> 50,> 50,–,> 50,> 50,–,–,–
5147_N06 (PGT-130) (antibody),> 50,1.53,0.052,> 50,0.258,4.6,0.061,> 50,0.008,0.151,1.2,0.308,> 50,10.7,0.6,> 50,0.009,1.2,1.4,"IC50 (ug/ml), neutralizing activity [35]: 0.0052 µg/mL; IC50 (ug/ml), neutralizing activity [27]: 0.474 µg/mL"
